Laboratory results: US20260035431A1 (CAVALRY BIOSCIENCES, published 2026)

T1: IGFBP2 (UniProt P18065 37-325, limits assumed)
T1 sequence (looked up): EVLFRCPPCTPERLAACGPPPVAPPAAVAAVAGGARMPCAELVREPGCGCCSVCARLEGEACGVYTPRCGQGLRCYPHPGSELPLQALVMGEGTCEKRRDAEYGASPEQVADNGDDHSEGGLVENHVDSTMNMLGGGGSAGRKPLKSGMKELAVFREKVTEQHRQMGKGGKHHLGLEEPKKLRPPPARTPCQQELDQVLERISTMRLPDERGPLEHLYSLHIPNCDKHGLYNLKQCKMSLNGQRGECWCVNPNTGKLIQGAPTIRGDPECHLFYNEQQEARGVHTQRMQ


Experiments:
Assay in all cases: cell-based or functional assay
[1] = biological target: T2, IGF1 receptor (IGF1R) on DU145 cells or immortalized human meibomian gland epithelial cells (human, UniProt P08069 31-1367)
T2 sequence (P08069 31-1367): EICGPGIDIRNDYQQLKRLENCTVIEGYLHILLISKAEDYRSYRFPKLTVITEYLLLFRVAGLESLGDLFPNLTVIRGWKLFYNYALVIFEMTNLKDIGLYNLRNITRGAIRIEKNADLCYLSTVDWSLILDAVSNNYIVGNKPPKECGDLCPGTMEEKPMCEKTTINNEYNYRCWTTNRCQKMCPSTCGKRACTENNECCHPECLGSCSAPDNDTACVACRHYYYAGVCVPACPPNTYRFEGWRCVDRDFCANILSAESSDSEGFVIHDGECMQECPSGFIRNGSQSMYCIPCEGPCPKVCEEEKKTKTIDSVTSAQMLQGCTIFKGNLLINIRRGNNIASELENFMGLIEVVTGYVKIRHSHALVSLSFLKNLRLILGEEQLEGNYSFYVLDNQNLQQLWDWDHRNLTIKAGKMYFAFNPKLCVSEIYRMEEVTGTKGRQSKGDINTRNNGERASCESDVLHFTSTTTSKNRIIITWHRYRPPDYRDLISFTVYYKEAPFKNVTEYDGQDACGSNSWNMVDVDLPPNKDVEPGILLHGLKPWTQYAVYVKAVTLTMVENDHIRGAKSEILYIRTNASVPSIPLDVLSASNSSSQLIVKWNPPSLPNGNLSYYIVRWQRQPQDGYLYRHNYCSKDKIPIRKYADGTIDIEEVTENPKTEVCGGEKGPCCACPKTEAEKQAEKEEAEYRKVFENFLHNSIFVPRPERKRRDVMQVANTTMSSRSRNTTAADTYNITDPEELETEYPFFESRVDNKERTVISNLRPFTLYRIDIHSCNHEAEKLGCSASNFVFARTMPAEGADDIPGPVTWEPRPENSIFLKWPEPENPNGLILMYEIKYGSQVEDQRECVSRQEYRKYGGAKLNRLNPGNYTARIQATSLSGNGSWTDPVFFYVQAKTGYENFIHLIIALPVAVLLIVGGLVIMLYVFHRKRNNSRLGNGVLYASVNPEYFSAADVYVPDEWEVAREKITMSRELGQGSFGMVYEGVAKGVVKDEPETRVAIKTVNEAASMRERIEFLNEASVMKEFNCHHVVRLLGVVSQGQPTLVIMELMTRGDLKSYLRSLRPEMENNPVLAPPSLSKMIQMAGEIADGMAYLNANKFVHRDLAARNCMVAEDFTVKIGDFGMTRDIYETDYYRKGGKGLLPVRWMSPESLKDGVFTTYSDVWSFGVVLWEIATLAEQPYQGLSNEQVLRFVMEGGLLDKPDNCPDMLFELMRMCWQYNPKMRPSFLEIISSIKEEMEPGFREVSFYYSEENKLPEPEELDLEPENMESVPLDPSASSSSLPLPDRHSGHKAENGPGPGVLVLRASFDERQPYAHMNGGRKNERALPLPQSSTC

IGFBP2 = biological target: T1, IGFBP2
IGFBP3 = IGFBP3 (UniProt P17936 28-291)
Chain of IGFBP3 (P17936 28-291 limits assumed): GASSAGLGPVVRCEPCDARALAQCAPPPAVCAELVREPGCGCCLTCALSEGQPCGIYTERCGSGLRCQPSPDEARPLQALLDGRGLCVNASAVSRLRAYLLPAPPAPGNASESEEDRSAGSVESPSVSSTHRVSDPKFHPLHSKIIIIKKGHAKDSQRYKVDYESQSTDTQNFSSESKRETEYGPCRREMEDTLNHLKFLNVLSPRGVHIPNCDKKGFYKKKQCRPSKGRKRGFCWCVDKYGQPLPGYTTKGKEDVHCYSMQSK

[2] = biological target: T2, IGF1 receptor (IGF1R) on DU145 cells or …; remark: listed apart in the source

Binder | % Activity compared to no IGFBP, 4x BP2 (IGFBP2) [%] | % Activity compared to no IGFBP, 4x BP3 (IGFBP3) [%] | EC50, AKT S473 phosphorylation in DU145 cells [1] [nM] | EC50 (nM), P-AKT in DU145 cells [2] [nM]
IGF-1 Des1-3 R37X (ligand) TLCGAELVDALQFVCGDRGFYFNKPTGYGSSSRAPQTGIVDECCFRSCDLRRLEMYCAPLKPAKSA |  |  | 4.1 | 
IGF-1 Des1-3 (SEQ ID NO: 8) as tested in Example 1 (ligand) MRAAAPAVAATLCGAELVDALQFVCGDRGFYFNKPTGYGSSSRRAPQTGIVDECCFRSCDLRRLEMYCAPLKPAKSA |  |  | 2.3 | 
E3R-F49L-D12A (ligand) GPRTLCGAELVAALQFVCGDRGFYFNKPTGYGSSSRRAPQTGIVDECCLRSCDLRRLEMYCAPLKPAKSA | 357 | 342 |  | 17.7

The next lines start with results.

% Activity compared to no IGFBP, 4x BP2 (IGFBP2) [%] | % Activity compared to no IGFBP, 4x BP3 (IGFBP3) [%] | Binder | EC50, AKT S473 phosphorylation in DU145 cells [1] [nM] | EC50 (nM), P-AKT in DU145 cells [2] [nM]
456 | 344 | E3R-F49L-D12A-L54A (ligand) GPRTLCGAELVAALQFVCGDRGFYFNKPTGYGSSSRRAPQTGIVDECCLRSCDARRLEMYCAPLKPAKSA |  | 68.1
175 | 239 | E3R-F49L-L54A (ligand) GPRTLCGAELVDALQFVCGDRGFYFNKPTGYGSSSRRAPQTGIVDECCLRSCDARRLEMYCAPLKPAKSA |  | 11.4
